The source of these data is patent publication US20210139565A1 (GOVERNMENT OF THE UNITED STATES AS REPRESENTED BY THE …, published 2021).

The target in one test is T1, Y. pestis YscF protein (Yersinia pestis KIM5, UniProt O68691 1-87).
T1 construct: also called YscF antigen
T1 sequence: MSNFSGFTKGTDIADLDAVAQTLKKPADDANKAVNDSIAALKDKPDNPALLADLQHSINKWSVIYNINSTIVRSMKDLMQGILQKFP
The test can be described thus: ELISA of periplasmic extract on YscF antigen and on blank wells, OD405. For orientation: ELISA stands for enzyme-linked immunosorbent assay.

The target of test [1] is T2, Y. pestis LcrV protein (Yersinia pestis KIM5, UniProt P0C7U7 1-326).
T2 construct: also called LcrV antigen
Nature of the test: SPR, BIACORE, LcrV immobilized on CM5 chip. (In general: In SPR one partner is held on a chip, and binding of the other changes the refractive index at the surface.)

Test [2] has as its target T2, Y. pestis LcrV protein. The test can be described thus: SPR, BIACORE T200, LcrV on CM5 chip, kd/ka.
The target in test [3] is T2, Y. pestis LcrV protein. The test can be described thus: SPR, BIACORE T200, LcrV on CM5 chip, 1:1 model.
The target of test [4] is T2, Y. pestis LcrV protein. The test can be described thus: Microcal (calorimetry).
The target in test [5] is T3, Y. pestis F1 protein (Yersinia pestis KIM5, UniProt P26948 22-170).
T3 construct: also called F1 antigen; Fl
The test can be described thus: SPR, BIACORE, F1 immobilized on CM5 chip.

Test [6] has as its target T3, Y. pestis F1 protein. Nature of the test: Microcal (calorimetry).

Residue numbers refer to the chain shown, from its start.

T3 sequence (P26948 22-170 limits assumed): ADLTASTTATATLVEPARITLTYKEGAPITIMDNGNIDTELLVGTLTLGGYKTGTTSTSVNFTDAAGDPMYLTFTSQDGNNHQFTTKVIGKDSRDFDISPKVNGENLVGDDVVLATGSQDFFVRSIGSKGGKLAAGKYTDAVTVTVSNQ
T2 sequence (P0C7U7 whole entry): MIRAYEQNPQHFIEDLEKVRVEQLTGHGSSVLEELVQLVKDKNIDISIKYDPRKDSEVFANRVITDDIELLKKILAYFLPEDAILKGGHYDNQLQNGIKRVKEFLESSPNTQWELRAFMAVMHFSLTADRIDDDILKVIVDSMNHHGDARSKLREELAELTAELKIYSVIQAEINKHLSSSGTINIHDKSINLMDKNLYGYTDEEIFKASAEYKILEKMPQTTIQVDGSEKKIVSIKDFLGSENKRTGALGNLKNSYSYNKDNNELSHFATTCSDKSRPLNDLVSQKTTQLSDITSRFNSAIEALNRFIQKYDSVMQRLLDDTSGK

B1: 3yscf57 (VHH)
VHH: QVQLQESGGGLVQAGGSLRLSCAASGRTWRAYYMGWFRQAPGKEREFVAVMSRSGGTTSYADSVKGRFTISRDNAKNTVYLQMNNLAPEDTATYYCKAGGGMYGPDLYGMTYWGKGTQVTVSS
Turning to B1, in the test with Y. pestis YscF protein, the binding result is reported as “binds”.

B2: 3yscf24 (VHH)
VHH: QVQLQESGGGLVQAGGSLKLSCTASQRTFSRYSLGWFRQAPGEERVFVAATTWSGISSDYADSVKGRFTISRDNAKNTGYLQMNNLKPEDTGVYYCAAGRSSWFAPWLTPYEYDYWGRGTQVTVSS
Regarding B2, in the test with Y. pestis YscF protein, the binding result was “binds”.

B3: 3yscf124 (VHH)
VHH: QVQLQESGGGLVQAGGSLRLSCVASGRAFSNYAMAWFRQAPGKEREFVAANWRSGGLTDYADSVKGRFTISRDDAKNTVYLQMNSLKPEDTAVYYCAAGGGSRWYGRTTASWYDYWGQGTQVTVSS
For B3, the binding result with Y. pestis YscF protein is listed as “binds”.

B4: 1LCRV47 (VHH)
VHH: QVQLQESGGGLVQPGGSLILSCTISGASLRDRRVTWSRQGPGKSLEIIAVMAPDYGVHYFGSLEGRVAVRGDVVKNTVYLQVNALKPEDTAIYWCSMGNIRGLGTQVTVSS
Regarding B4, the Kd with Y. pestis LcrV protein [1] was greater than 1000 nM.

B5: 2LCRV11 (VHH)
VHH: QVQLQESGGGLVQPGGSTRLSCAASGFTLDIYAIGWFRQAPGKEHEGVSWIVGNDGRTYYIDSVKGRFTISRDNAKNTVYLEMNSLKPEDTAVYYCAAKFWPRYYSGRPPVGRDGYDYWGQGTQVTVSS
Consider B5, for which the Kd with Y. pestis LcrV protein [2] and in the test with Y. pestis LcrV protein [1] was 8.2 nM each time. In addition, the koff with Y. pestis LcrV protein [3] is 0.0072 s⁻¹. The molecule further yielded an on-rate constant (kon) with Y. pestis LcrV protein [3] of 880000 M⁻¹ s⁻¹.

B6: 1LCRV13 (VHH)
VHH: QVQLQESGGGLVRPGGSLKLSCAASGFTFNWYTMAWYRQVPGEERKMVATITGASGDTKYADSVKGRFTISRDNAKNTVTLQMNSLKPGDTAVYYCHAYLTYDSGSVKGVNYWGQGTQVTVSS
On to B6, for which the Kd turned out to be 0.00063 nM with Y. pestis LcrV protein [2], 3.2 nM in the test with Y. pestis LcrV protein [4] and 0.00063 nM with Y. pestis LcrV protein [1]. In addition, the koff with Y. pestis LcrV protein [3] was 1.6e-07 s⁻¹. This molecule also registered an association rate constant (kon) with Y. pestis LcrV protein [3] of 250000 M⁻¹ s⁻¹.

B7: 1LCRV81 (VHH)
VHH: B6 VHH with L11S, R13Q, F68S, Y99C
Turning to B7, the Kd in the test with Y. pestis LcrV protein [2] and with Y. pestis LcrV protein [1] was 3.5 nM each time. Besides, the koff in the test with Y. pestis LcrV protein [3] turned out to be 0.00063 s⁻¹. Also, in the test with Y. pestis LcrV protein [3], the kon was 180000 M⁻¹ s⁻¹.

B8: 4F59 (VHH)
VHH: QVQLQESGGGLVRPGGSLRLSCEASGTTFRSLVMKWYRQAPGKEREWVAFISSPGDRTRYTEAVKGRFTISRDNAKNALYLQMNGLKPEDTAVYYCNANGIYWGKGTQVTVSS
Regarding B8, the Kd in the test with Y. pestis F1 protein [5] stood at 27 nM; with Y. pestis F1 protein [6], 83 nM.

B9: 3yscf140 (VHH)
VHH: QVQLQESGGGLVQAGGSLRLACAASGETVDDLAIGWFRQAPGKEREEISCISGSDGSTYYADSLSGRFTISRDNVKNTVYLQMNSLKLEDTAVYYCYAEIYDRRWYRNDYWGQGTQVTVSS
For the molecule B9, the binding result with Y. pestis YscF protein is “binds”.

B10: 3yscf142 (VHH)
VHH: QVQLQESGGGLVQAGGSLRLSCAASGRTFSSHAMAWFRQGPGEERQFLAAIRWNGDNIHYSDSAKGRFTISRDLAKNTLYLQMNSLKPEDTAVYYCARGVYDYWGQGTQVTVSS
As for B10, the binding result with Y. pestis YscF protein is on record as “binds”.

B11: 3yscf15 (VHH)
VHH: QVQLQESGGGLVQAGGSLRLSCAVSGRTFSRYAMGWFRQAPGKEREFVAAISWSGSSTYYADSVKGRFTISRDHAKNVMYLQMNGLKPEDTGVYVCARPAYGLRPPYNYRGQGTQVTVSS
B11: in the test with Y. pestis YscF protein, the binding result was “binds”.

B12: 1LCRV28 (VHH)
VHH: QVQLQESGGGLVQPGGSLRLSCAASGGTLGYYAIGWFRQAPGKEREAVSCITSSDTSAYYADSAKGRFTISRDNAKNTMYLQMNNLKPEDTAVYYCAAGYYFRDYSDSYYYTGTGMKVWGKGTQVTVSS
In the case of B12, the Kd with Y. pestis LcrV protein [2] turned out to be 0.19 nM; with Y. pestis LcrV protein [4], 0.2 nM; with Y. pestis LcrV protein [1], 0.19 nM. Besides, the koff with Y. pestis LcrV protein [3] stood at 8.1e-05 s⁻¹. The same molecule registered a kon with Y. pestis LcrV protein [3] of 430000 M⁻¹ s⁻¹.

B13: 1LCRV32 (VHH)
VHH: QVQLQESGGGMVEPGGSLRLSCAASGFRFSSYAMSWVRQAPGKGLERVSAINSDGDKTSYADSVKGRFTISRDNARNTLYLQMSNLKPEDTAVYYCADRDLYCSGSMCKDVLGGARYDFRGQGTQVTVSS
Turning to B13, the results for the dissociation constant Kd in the test with Y. pestis LcrV protein [2], in the test with Y. pestis LcrV protein [4] and in the test with Y. pestis LcrV protein [1] were 22 nM, 26 nM and 22 nM, respectively. The molecule further had an off-rate (koff) in the test with Y. pestis LcrV protein [3] of 0.0073 s⁻¹. The kon in the test with Y. pestis LcrV protein [3] is 340000 M⁻¹ s⁻¹.

B14: 1LCRV31 (VHH)
VHH: QVQLQESGGGLVQPGGSLGLSCAASGSLLNIYAMGWYRQAPGRQRELVATVTSSGTAEYADSVKGRFTISRDNAKNTVYLQMNSLRPEDTGVYYCNAHLRYGDYVRGPPEYNYWGQGTQVTVSS
B14: the values for the Kd in the test with Y. pestis LcrV protein [2], in the test with Y. pestis LcrV protein [4] and with Y. pestis LcrV protein [1] were 0.0019 nM, 0.76 nM and 0.0019 nM, respectively. Further, the koff with Y. pestis LcrV protein [3] was 3.1e-07 s⁻¹. The kon with Y. pestis LcrV protein [3] came out at 170000 M⁻¹ s⁻¹.

B15: 3F5 (VHH)
VHH: QVQLQESGGGLVQSGDSLRLSCAASGFTFSNYAMSWVRQAPGKGLEWVSTINSGGGSTSYAYSVKGRFTISRDNAKNTLYLQMNSLKPEDTAVYYCAKTASHIPLSQGTQVTVSS
Regarding B15, the Kd was 47 nM with Y. pestis F1 protein [5] and 83 nM with Y. pestis F1 protein [6].

B16: 4F1 (VHH)
VHH: QVQLQESGGGLVQPGGSLSLSCSASGIIFSDYALTWYRQAPGKQREWVAQITRSQNINYTGSVKGRFTVSRDNAKNTVHLQMNSLKPEDTAVYYCHAYDGRRPPYWGQGTQVTVSS
In the test with Y. pestis F1 protein [5], B16 had a Kd of 520 nM.

B17: 4F34 (VHH)
VHH: B16 VHH with L11S
The molecule B17 yielded a Kd with Y. pestis F1 protein [5] of 390 nM.

B18: 3F61 (VHH)
VHH: B16 VHH with S19R, T90A
As for B18, the Kd in the test with Y. pestis F1 protein [5] was 68 nM; with Y. pestis F1 protein [6] it was 290 nM.

B19: 4F6 (VHH)
VHH: B16 VHH with L11S, P103R, P104T
Regarding B19, the Kd in the test with Y. pestis F1 protein [5] was found to be 34 nM; with Y. pestis F1 protein [6], 80 nM.

B20: 3yscf75 (VHH)
VHH: QVQLQESGGGLVQAGDSRILSCTASGRTFGRPFRYTMGWFRRAPGKEREFVGGITRSGNNIYYSDSVKGRFTISRDNAKNTVYLQMNSLKPEDTAVYYCNADWGWRNYWGQGTQVTVSS
Turning to B20, in the test with Y. pestis YscF protein, the binding result is “binds”.

B21: 3F55 (VHH)
VHH: QVQLQESGGGLVQAGGSLRLSCAVSGMMYIREAIRWYRQAPGKQREWVAFVSSTGNPRYTDSVKGRFTISRDNAKNTVYLQMNSLTPEDTAVYYCNTYLGSRDYWGQGTQVTVSS
With B21, the Kd was 2.2 nM with Y. pestis F1 protein [5] and 190 nM with Y. pestis F1 protein [6].

B22: 3F85 (VHH)
VHH: B21 VHH with A14P, E32Y, A33T, I34M, F50V, R58H, T60A
Turning to B22, the values for the dissociation constant Kd with Y. pestis F1 protein [5] and in the test with Y. pestis F1 protein [6] were 15 nM and 110 nM, respectively.

B23: 3F1 (VHH)
VHH: QVQLQESGGGLVQPGGSLRLSCAASGFTFSTSAMSWIRQPPGKAREVVATITSAGGSISYVNSVKGRFTISRDNAKNTLYLQMNMLKPEDTAVYYCARLVNLAQTGQGTQVTVSS
For B23, the Kd with Y. pestis F1 protein [5] is 97 nM; with Y. pestis F1 protein [6], 110 nM.

B24: 3F59 (VHH)
VHH: QVQLQESGGGLVQPGGSLRLSCAASGFTFSSYAMSWVRLAPGKGLEWVSTINIAGGITSYADSVKGRFTISRDNAKNTLYLQMNSLKPEDTAVYYCAKTAANWSAQRGQGTQVTVSS
The molecule B24 yielded a Kd with Y. pestis F1 protein [5] of 5.9 nM.

In general, Kd refers to the free concentration of one partner at which half of the binding sites on the other are occupied at equilibrium, for simple one-to-one binding. As usually defined, the koff is the rate constant with which the complex falls apart. High values mean a short-lived complex, low ones a long-lived complex. The term kon denotes a measure of how fast the partners come together. Lower therefore signals slow association.
